# Assay: soluble on expression in E. coli; label from the status in PepcDB or PDB records
row,Sequence,soluble on expression in E. coli
1,MPDGDFITLDRVEKVFDVRRKTGFLRSERRRVRAVDSLSFTVARGEMVGYIGPNGAGKSTTIKMLTGILTPSGGRLRVAGIDPSRERTRLAARIGVVFGQRTTLWWDLPLIDSYRLMHRMYRIPDGRYRENLDRCVELLELGDLLDVPVRQLSLGQRMRGDIAAALLHDPEVLYLDEPTIGLDVISKARVREFLRELNAERGTTVLLTTHDLQDIEQLCGRVMVIDHGRLMYDGPLAGLHEVGDSERTLVVDLARELPPIEAAPARVVKVEGPRQWLAFPASESAAPLVARIAAAYPLVDLSVREPDIEAVIAKMLQSMGDTPQPPPEQAEHVVSLEHHHHHH,soluble
2,MAHHHHHHMGQDQSRAKACQLGQAETGGTDRSVSAGSASAAPWEAPVSLAGVEGFQVVRLLPDSPAHKAGLIPFFDIVTALDKVLLESEGKAALSFFKSYVANHRDQPVCFTTFNLYSRTYRDVYCVPSDEWGGGGLLGCSIEWTRADACPERCVHVVDVLEGSPAACSTELQANRDYIIGMQTVQETLITLIKSQKDFYCRLEAWHEEQRWALERKQFFPNERVEVPHVLLFLVYNSESNTIEEVEVEMGTNPEAAVGISVATGLLHIIPSVATADLAVGASLPVMSKFASVGHSVVTPTRAQQQEHQLLQDVSLTPAVGAAPQPREQSQESTGSAQPLPSLPLPQEAHARCAVVDSPEVHTMTNPHEPPMNSCPQPCPPRPQLQQQLTEAALYSMPSLASFNVAPPPRHDAAGGTAAAAVEMGQKPFNPFAEEASPDYDVLEGAPLAHEGVMAAEHHLGQHAPTMEQPYSSSYPPLSSQSPPLSGSLPAQMNGSHNPATALPSYSAPPPPPQQLHVTTMPTFSSQRMPPPLQFPVFPGAAAAKRAPA,not soluble
3,MKVKEHCGIVGVYADNSPMISYESLKLLQHRGQESAGITYRKDGSLVTMKGLGLVEEALDPRLLPNAKLSIGHVRYSTTGKGSLDEAQPLSNGKIAIAFNGTITNYFKFGTSTDTEFILKVLSEAPNIKEGIRRLVDLADGAYSLVVLTNEGELIGFRDPKGFRPLVLGKINNGYIIASEDSVIRQLGGKPLRDVKPGEMIYIKDGEIESEVISRDRVSFCSFEYIYFARPDSIIDGVSVYNSRIKLGEILAENHGVDADVAIPVPESSIPIAIGFSRKSKIPMEYGLIRTLVAKRSFIMPTQDKRNAVLEEKFGIVKSVVENKKVVVIDDSIVRGNTMRKIVRMIRDNGAKEVHVRIGSPKVKYPCYMGIDFPLSKELIASEKDEKEIAKYIGADSVEFLTVEEMIKAIGRPDLCHACFSGVYPLKFSYNLQVLESIFKKVS,soluble
4,MKRIPYALVDVFAPAPGAGNRVAVVLDARGMSPEEMQAVAQSLGAAEAAFLLERTGAALSVRFFAPGGEVEFSGHAAVAVGLTAARTGLVPEGTTRLYLHTPTEVLPVELVLEAGEPRKAWVRGPAPRFRDLPPYRALREVLEALGSDERYLHRGLPYGVAFTGLWSLFVPLIAPGVVDALEPEMERLKALCFRLDVATVHAYAPMGPRSFYARDFAPLLGIPEDPVTGSANAALGALLARAGVVPRREGKVLLTVYQGHHLGNPGVVEVQVEYSPTGEPYSVQIGGEAVIVQTGEV,soluble
5,MLDVHPSGFYAWLQQPHSQRHQADLRLTGQIKQFWLESGCVYGYRKIHLDLRDSGQQCGVNRVWRLMKRVGIKAQVGYRSPRARKGEASIVSPNRLQRQFNPDAPDERWVTDITYIRTHEGWLYLAVVVDLFSRKIIGWSMQSRMTKDIVLNALLMAVWRRNPEKQVLVHSDQGSQYTSHEWQSFLKSHGLEG,not soluble
6,MGHHHHHHSHMNGFSTEEDSREGPPAAPAAAAPGYGQSCCLIEDGERCVRPAGNASFSKRVQKSISQKKLKLDIDKSVRHLYICDFHKNFIQSVRNKRKRKTSDDGGDSPEHDTDIPEVDLFQLQVNTLRRYKRHYKLQTRPGFNKAQLAETVSRHFRNIPVNEKETLAYFIYMVKSNKSRLDQKSEGGKQLE,soluble
7,MSLKTTLPISLDWSTEEVIDVVHFFQAIEQAYDQGIAREDLLGKYRRFKEIVPSKSEEKQLFRAYEQENDVSCYQTIKKAREEMEEHIQMEGHHHHHH,soluble
8,LHRILKVVFPKRKIVLWVIGGDLHLEVEKGRYRVDVLKSLQYLLVEGQAMKDALCGQGVENVKVMPNFKDISLFSPLHCHTPYTPSKVLRLVFFSRIMPDKGCDLILDLAHKLNERGYKDKFVIDFYGPIAPDYSKRFSSILDTLPNVHYQGTLD,not soluble
9,MGSDKIHHHHHHMTEQNQKQLGNTLWSIADQLRGAMDADDFRDYMLSFLFLRYLSDNYETAAKKELGRDYPDVGGDARKVPLALWYANNVDDIPAFEKQMRRKVHYVIQPAHLWNSIANLARTQNPDLLDTLQAGFKYIETESFESTFQGLFSEIDLSSPKLGKSYSDRNAKLCTIIQKIAEGLAAFSTNIDALGDAYEYLIGQFAAGSGKKAGEFYTPQQISDILSAIVTLDSQEPKTGTKKRLDSVLDFACGSGSLLLNVRKKVNQAGGSIGKIYGQEKNITTYNLARMNMLLHGVKDTEFEIFHGDTLLNEWDMLREQNPARKPSFDAVVANPPFSYRWEPTDALADDVRFKSHGLAPKSAADFAFLLHGFHYLKDEGVMAIILPHGVLFRGGAEERIRTKLLKDGHIDTVIGLPANLFYSTGIPVCILVLKKCKKPDDVLFINAAEHFVKGKRQNHLSDEHIAKIIETYQFRTEEPRYARRVDMAEIEKNDFNLNISRYISTAVDEEEIDLTATHANLVNIEKAIQQATAKHNEFLKELGMPLLP,not soluble
10,MKHFDFSLRIWPISLWFVKHSGVKNPMNEVIIREITSEDKEMFLCAMQSSQALHHPWVKAPIIPEEFDEYFSRYQKPNQKSYLLLSDNNLAGVFNISEIVRGYFQNAYLGFYVVAAYAGKGYMSTGLKLILTKVFKDMGLHRLEANIQPENTRSIWLVKKNGFRYEGFSPRYLRVNDVWQGHEHWAMTYEDFIKDNNEVLEKDHIDIVAYNTEWPLLAKAEMVKLRASFPANSVIDIQHVGSTAIPGMASKPIIDIQIAVRSLEEMKIIAVPILQKLDYEYWEDNPDPERMFFVKGMPPYGNGRTHHVHIVEASSRHWKGKTFFRDYLLSHPEAAEKYQQLKIKLAQEHKYDREQYTDAKSEFINQILKLAQN,not soluble
11,MREQQPDVPPAEPANDVVAPPPLMDLGPPVNPMLPLDLPYNVVREIGIAVSSKITILLLRTPNYKLD,not soluble
12,MGSDKIHHHHHHMTKTKNEKEEFIRVGTTLYKLVNQPRLNGGYVRKRIVWNNETLRQDYGKDYLATVPKYDGFCTVPNHVDYRPVVDKFLNLYEPIEHCPQQGEFPCIQSLVRHIFGEQYELGMDYLQLLYLQPVQKLPILLLVSEERNTGKSTFLNFLKALFQNNVTFNTNEDFRSQFNSDWAGKLLIVVDEVLLNRREDSERLKNLSTTLSYKVEAKGKDRDEIAFFAKFVLCSNNEYLPVIIDAGETRYWVRKIDRLQSDDTDFLQKLKAEIPAFLHFLQHRQLSTEKESRMWFAPSLLHTEALRKIIRSNRNRLEIEIHELILDIMDSVGTDTFSFCYNDLLLLLVHSQVKVEKYQVRKVLQECWKLTPASNGLTYTTYQFNYNRECRYEPIKRVGRFYTVTRKQLDSL,not soluble
13,MGSDKIHHHHHHMVILHIIAGLEKGGAESTLKRLCLNGTEHEHVVVSLSTLGSVGLELQKAGVKVYCLDIRPSITSVAAIFRLYKIIKLRKPSVVQTWMYHADLVGGIVSRVAGVKKIYWGVHHTYLIKGQSKRVTIFISRINSVLSHFIPTKIVYCANSARVAQEKIGYNKKSGIVIFNGYDTSKFKRDLKLRSVYREKLGLKETDFVIGHVGRYDSLKDYPNLINAIRKVKYKVGGLKVILVGAGLSKDNRELLNVISESTLISKFHLLGPSDDIPGIMNAIDVFVLSSSSEAFPNVLNEAMACGTPCVSTDVGDASAIVGMTGWLSAAGDSSALAEKIYAAYKEFSENKANWEERQYSCRERIVTNFSSQSMVSNYTLLWQS,not soluble
14,MGSDKIHHHHHHMTEQFNINQFNCSISGKGQTLIWAHGSTGCIQSEDAIGLYAWHRFPKKLQLIRYDAVGHGLSSAGKCVEDYLWPELANDMISVATHCKATSELILGGQSMGSATSLYAALKHPGMVKGLILMNPPNAWHSRAAQVDEYHKMAKAARIFGGKGLAKISAKHWDKLLPNWLINGHEHSVLGMLDGLKQMTSQTLDQLFRAAALNDLPNKQLLSGLTMPTLILAWHGDKTHPVETAIELHQTLPNSTLHIADSVDEVNEWPELISEFCFRL,not soluble
15,ASQKVEKTVIKNETGTISISQLNKNVWVHTELGSFNGEAVPSNGLVLNTSKGLVLVDSSWDDKLTKELIEMVEKKFQKRVTDVIITHAHASRIGGIKTLKERGIKAHSTALTAELAKKNGYEEPLGDLQTVTNLKFGNMKVETFYPGKGHTEDNIVVWLPQYNILVGGCLVKSTSAKDLGNVADAYVNEWSTSIENVLKRYRNINAVVPGHGEVGDKGLLLHTLDLLK,soluble
16,MRNITNFLKTFLLWELLKGLKVTGKHFFTRKVTVQYPDEKTPISNRFRGLHALRRYENGEERCIACKLCEVVCPALAITINSTEREDGTRRTSSYEMDLFKCIFCGYCEESCPVDSIVETNILEYHFEERGENIMTKAKLLAIGDKYEAQIAADRLQDKDFR,not soluble
17,GPGSMEYVGALYKDYGELLSTAQNSFLNVQSDVEGVEDVKNICARLHISIHRWEHSEELYAVRNQLHLQTQVLKAHSDHSSRVLQECVQRDELIKMHTEKSALLATKLRKQSSEVDKLQKECDKLDRKIAKRSEVAQKDLDAMAVKSTATVLSLTSQFFKVMHKNGAFIADRFSPDRAGVGAHDFDTASDDAVTGTLRRLHSVRSEMSSVAPSAVYGQNYNTFHPSEADTRVSDGARNSGIPLRYETSVPPAMSA,not soluble
18,MGSDKIHHHHHHMKVEITVSEDRMQAYVTLRKEGSSELPLTKEELLNALLSAGINHGIKEEIIEDLARSPVYNTPVLVAEGTPPVDGEDGRVELLKKIEFSSHEGEKIDLREIPAKQRVIVRKGETIARIIPPTPGKEGMDVFGNPVKPKPGRVPEYHLGYNVATKNNEIIATKSGILVIEPNGTIHVYDTLEVDNVDYSTGNIDFPGKVVVKGDVKPDFVVKAQEDITVKGVIEAATVISFNGSITAGGIKGRGKAFVKAKKTVKAVFIESAEVEAEEVQVEKNIENSAVKAINVVVSGKGGSIRGGITIAQVKVETYFLGSPIGVKTRVEVGVDPEINEKIKLLSAQISLDRENVQKLTKLLVELRKLQGMLKDKFPPDKEALLNKVNNTLINLRDSIQKNEGELKRLKEIAEEMAKNASVVVKEVVYSGVEIVMFERVFRVEKELAKAVFYYRDGEIRVGGYSA,not soluble
19,MEPQLRCIGCGAAIQFENPKNAGYAPKSVLEKDAEEVICQRCFRLKHYNEVQDVPLDDDDFLSMLHRIGESKALVVNIVDIFDFNGSFIPGLPRFAADNPILLVGNKADLLPRSVKYPKLLRWMRRMAEELGLCPVDVCLVSAAKGIGMAKVMEAINRYREGGDVYVVGCTNVGKSTFINRIIEEATGKGNVITTSYFPGTTLDMIEIPLESGATLYDTPGIINHHQMAHFVDARDLKIITPKREIHPRVYQLNEGQTLFFGGLARLDYIKGGRRSFVCYMANELTVHRTKLEKADSLYANQLGELLSPPSKRYAAEFPPLVPRSLSVKERKTDIVFSGLGWVTCNDPGAQLVVHAPKGVDVFIRQSLI,soluble
